Data from publication PMC2965767, “Identification and Genome-Wide Prediction of DNA Binding Specificities for the ApiAP2 Family of Regulators from the Malaria Parasite”.

Assays:
[1] = molecular target: PF11_0091 D1 (PF3D7_1107800, AP2 domain transcription factor, putative) (Plasmodium falciparum, UniProt Q8IIS4 1486-1548); assay: EMSA; 5 mM MgCl2 with 10 mM EDTA; LightShift buffer, 2.5% glycerol, 50 mM KCl, 0.05% NP-40, 50 ng/uL poly(dI-dC); room temperature, 20 min; settings: tags: N-terminal GST (pGEX-4T1), kept; label: 5' biotin
[2] = molecular target: T1, PFD0985w_D2 (AP2 domain 2) (Plasmodium falciparum, UniProt Q8I1N6 3268-3321); assay: EMSA; poly(dI-dC); bound equally well as primary motif; LightShift EMSA buffer, 2.5% glycerol, 5 mM MgCl2, 10 mM EDTA, 50 mM KCl, 0.05% NP-40, 50 ng/uL poly(dI-dC), 10 fmol biotin probe, 50 or 250x competitor, room temperature 20 min; settings: protein: recombinant; tags: N-terminal GST (pGEX-4T1); label: 5' biotin (probe); blunt
T1 sequence: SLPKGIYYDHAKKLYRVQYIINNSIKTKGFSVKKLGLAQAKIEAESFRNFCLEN

B1: gbp130 (dsDNA)
DNA 1: AAGCAAATAAGATATTCCAAAAAAAAGTATTCTAATGTGTACTAATAAACCTTTATATAA
DNA 2: TTATATAAAGGTTTATTAGTACACATTAGAATACTTTTTTTTGGAATATCTTATTTGCTT
B1: binds [1].

B2: PFD0985w_D2-2° (dsDNA)
DNA 1: AATATTATAATAGTCGTAGCCATCAATCCACACACCATGGTAATATAGATTTTCGTTTATATT
DNA 2: AATATAAACGAAAATCTATATTACCATGGTGTGTGGATTGATGGCTACGACTATTATAATATT
B2: binds [2].
